Reference: patent publication US20260137799A1, “ANTI-MUC1* ANTIBODY DRUG COMPLEXES AND USES THEREOF” (Minerva Biotechnologies Corporation, priority 2023, published 2026)

B1: anti-MUC1* antibody C2 (antibody)
VH: EVQLEESGGGLVKPGGSLKLSCAASGFTFSGYAMSWVRQTPEKRLEWVATISSGGTYIYYPDSVKGRFTISRDNAKNTLYLQMSSLRSEDTAMYYCARLGGDNYYEYFDVWGAGTTVTVSSAKTTPPSVYPLAPGSAAQTNSMVTLGCLVKGYFPEPVTVTWNSGSLSSGVHTFPAVLQSDLYTLSSSVTVPSSTWPSETVTCNVAHPASSTKVDKKIVPRDCGCKPCICTVPEVSSVFIFPPKPKDVLTITLTPKVTCVVVDISKDDPEVQFSWFVDDVEVHTAQTQPREEQFNSTFRSVSELPIMHQDWLNGKEFKCRVNSAAFPAPIEKTISKTKGRPKAPQVYTIPPPKEQMAKDKVSLTCMITDFFPEDITVEWQWNGQPAENYKNTQPIMDTDGSYFVYSKLNVQKSNWEAGNTFTCSVLHEGLHNHHTEKSLSHSPGK
VL: DIVITQSTASLGVSLGQRATISCRASKSVSTSGYSYMHWYQQRPGQPPKLLIYLASNLESGVPARFSGSGSGTDFTLNIHPVEEEDAATYYCQHSRELPFTFGGGTKLEIKRADAAPTVSIFPPSSEQLTSGGASVVCFLNNFYPKDINVKWKIDGSERQNGVLNSWTDQDSKDSTYSMSSTLTLTKDEYERHNSYTCEATHKTSTSPIVKSFNRNEC
notes: Monoclonal antibody raised against the PSMGFR peptide; also called mAb C2; IgG1 C2 antibody
B2: anti-MUC1* antibody 3C2B1 (antibody, V domains shown)
VH: EVMLVESGGGLVKPGGSLKLSCAASGITFSTYTMSWVRQTPEKRLEWVATISTGGDKTYYSDSVKGRFTISRDNAKNNLYLQMSSLRSEDTALYYCARGTTAMYYYAMDYWGQGTSVTVSS
VL: DIVLTQSPASLAVSLGQRATISCRASKSISTSDYNYIHWYQQKPGQPPKLLIYLASNLESGVPARFSGSGSGTDFTLNIHPVEEEDAATYYCQHSRELPLTFGAGTKLELK
notes: Humanised form is m27; also called 32CB1
B3: C2 MC-VC-PAB MMAE (conjugate, listed as Mus sp.)
heavy: EVQLEESGGGLVKPGGSLKLSCAASGFTFSGYAMSWVRQTPEKRLEWVATISSGGTYIYYPDSVKGRFTISRDNAKNTLYLQMSSLRSEDTAMYYCARLGGDNYYEYFDVWGAGTTVTVSSAKTTPPSVYAKTTPPSVYPLAPGSAAQTNSMVTLGCLVKGYFPEPVTVTWNSGSLSSGVHTFPAVLQSDLYTLSSSVTVPSSTWPSETVTCNVAHPASSTKVDKKIVPRDCGCKPCICTVPEVSSVFIFPPKPKDVLTITLTPKVTCVVVDISKDDPEVQFSWFVDDVEVHTAQTQPREEQFNSTFRSVSELPIMHQDWLNGKEFKCRVNSAAFPAPIEKTISKTKGRPKAPQVYTIPPPKEQMAKDKVSLTCMITDFFPEDITVEWQWNGQPAENYKNTQPIMDTDGSYFVYSKLNVQKSNWEAGNTFTCSVLHEGLHNHHTEKSLSHSPGK
light: DIVITQSTASLGVSLGQRATISCRASKSVSTSGYSYMHWYQQRPGQPPKLLIYLASNLESGVPARFSGSGSGTDFTLNIHPVEEEDAATYYCQHSRELPFTFGGGTKLEIKRADAAPTVSADAAPTVSIFPPSSEQLTSGGASVVCFLNNFYPKDINVKWKIDGSERQNGVLNSWTDQDSKDSTYSMSSTLTLTKDEYERHNSYTCEATHKTSTSPIVKSFNRNEC
modifications: MC-VC-PAB-MMAE
notes: ADC: anti-MUC1* antibody C2 conjugated via MC-VC-PAB linker to MMAE

Assays:
[1] = target: T1, PSMGFR C-10 peptide; experiment: ELISA on PSMGFR C-10 peptide; Table 4 grade
T1 peptide: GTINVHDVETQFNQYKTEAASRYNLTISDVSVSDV

[2] = target: MUC1* on cancer cells and tumour sections (UniProt P15941); experiment: IHC with C2 on untreated H1975-wt lung tumors excised from mice
[3] = target: MUC1* on cancer cells and tumour sections (UniProt P15941); experiment: IHC with C2 on untreated HPAFII-wt pancreatic tumors excised from mice
[4] = target: MUC1* on cancer cells and tumour sections (UniProt P15941); experiment: IHC with C2 on untreated T47D-wt breast tumors excised from mice
[5] = target: T2, PSMGFR N-30 peptide; experiment: peptide binding assay (FIGS. 2A, 2B)
T2 peptide: SVSDVPFPFSAQSGA

[6] = target: T3, PSMGFR N-19 C-5 peptide; experiment: peptide binding assay (FIGS. 2A, 2B)
T3 peptide: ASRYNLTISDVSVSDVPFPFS

[7] = target: T4, PSMGFR N-10 peptide; experiment: ELISA on PSMGFR N-10 peptide; Table 4 column 'Binds N-10', grade
T4 peptide: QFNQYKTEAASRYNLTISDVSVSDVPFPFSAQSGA

[8] = target: T5, PSMGFR peptide; experiment: peptide binding assay (FIGS. 1A, 1B)
T5 construct: also called PSMGFR 45mer
T5 peptide: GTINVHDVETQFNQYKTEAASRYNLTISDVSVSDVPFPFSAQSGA

[9] = tested on: T47D xenograft tumors; experiment: T47D breast cancer xenograft; format: in vivo, NOD/SCID mice; conditions: intraperitoneal; MMAE ADCs 5-10 mg/kg Days 7, 14, 20; deruxtecan/exatecan ADCs 20 mg/kg weekly x7
Procedure: (§1) For breast cancer xenografts, female NOD/SCID mice (weight 18-22 g, 6-8 weeks old, Charles River Laboratories) previously implanted with a 90-day release estrogen pellet (Innovative Research Laboratories) were subcutaneously injected under isoflurane anesthesia (ISOTHESIA, 250 ml (HENRY SCHEIN, NDC: 11695-6776-2) with one million luciferase-positive T47D breast cancer cells expressing low levels of MUC1*(ATCC) or one million luciferase-positive T47D-MUC1* cells overproducing MUC1* using a BD 26G Insulin Syringes with Detachable Needle (Fisher cat: 329652) or BD 28G Lo-Dose U-100 Insulin Syringes (Fisher cat: 329461).
(§2) Tumor volume was measured from bioluminescence images acquired with a Xenogen IVIS-Spectrum system (Perkin Elmer). Mice were injected […] into the scruff of the neck with 150 ul, 30 mg/mL, D-Luciferin (XenoLight™ D-Luciferin Potassium Salt; PerkinElmer P/N 122799), placed under isoflurane anesthesia, and photographed within 10 minutes of the Leciferin injection. Data was expressed graphically as Radiance (photons/sec) as a function of days post-tumor implantation.
(§3) Tumor mass was determined from tumors excised from mice receiving T47D cells on Day 95 and mice receiving T47D-MUC1* cells on Day 96. […]

[10] = tested on: T47D; experiment: PrestoBlue live/dead cell assay, T47D; format: cell-based, human; conditions: Presto Blue; 72-120 hour incubation
Procedure: (§4) Another method of measuring the killing activity of ADCs against target cancer cells is to use the PrestoBlue live/dead cell assay (ThermoFisher). Target cancer cells were seeded in a black-walled, clear-bottom 96-well tissue culture plate at a density of 5000 cells/well (100 μL of a 50,000 cells/mL stock) and incubated overnight in a 37° C./5% CO2 incubator. ADCs were prepared as a 2× solution in corresponding cancer cell growth media and 100 μL of each concentration was added to target cancer cells. As a positive control (100% killing) cancer cells were treated with 1 μM Taxol instead of ADC. After 72 hour-120 hour incubation in a 37° C./5% CO2 incubator, cell viability was measure by fluorescence using the PrestoBlue HS assay (ThermoFisher). Briefly, after the incubation period, 20 μL of PrestoBlue HS solution was added. Fluorescence (Ex 560 nm/Em 590 nm) was recorded after 30-90 min. incubation using a Tecan plate reader. Percentage viability was determined by PrestoBlue HS staining and normalized to 1 μM taxol treated cells.
(§5) The normalized fluorescence values were imported into the graph program, Sigma Plot, data plotted as ADC concentration versus normalized fluorescence signal and curve fitted using a four-parameter Hill equation: f=y0+a*x^b/(c^b+x^b) to calculate IC50 values. IC50 values for the ADCs were generally consistent between the xCELLigence and Presto Blue assays.

[11] = tested on: T47D; experiment: xCELLigence impedance cytotoxicity, T47D; format: cell-based, human; conditions: xCELLigence; 40-120 hours incubation; read-out: IC50, T47D
Procedure: (§6) An xCELLigence RTCA MP Instrument (Agilent) was used to assess real-time killing of target cancer cells). In the xCELLigence system, target cancer cells, which are adherent, are plated onto electrode array 96-well plates. Adherent cells insulate the electrode and increase the impedance. The number of adherent cancer cells is directly proportional to impedance. […] Therefore, increasing impedance reflects the growth of the cancer cells and decreasing impedance reflects the killing of the cancer cells.
(§7) Target Cancer cells (Table 9) were seeded onto a multi-electrode well plate at a density of 5000 cells/well (100 μL of a 50,000 cells/mL stock) and incubated for 24 hr in a 37° C./5% CO2 incubator. ADCs were prepared as a 2× solution in corresponding growth media and 100 μL of each concentration was added to target cells. As a positive control (100% cell killing) cells were treated with either 1% triton or 1 μM Taxol instead of ADC. After 40-120 hours incubation in a 37° C./5% CO2 incubator cell killing was assessed. In this assay, impedance is measured in real-time. When the adherent cancer cells are killed and come off the electrode surface, impedance (insulation) decreases.

[12] = tested on: T47D-MUC1*; experiment: PrestoBlue live/dead cell assay, T47D-MUC1*; format: cell-based, human; conditions: Presto Blue; 72-120 hour incubation
Procedure: as §4, §5

[13] = tested on: T47D-MUC1*; experiment: xCELLigence impedance cytotoxicity, T47D-MUC1*; format: cell-based, human; conditions: xCELLigence; 40-120 hours incubation; read-out: IC50, T47D-MUC1*
Procedure: as §6, §7

[14] = tested on: HPAFII; experiment: PrestoBlue live/dead cell assay, HPAFII; format: cell-based, human; conditions: Presto Blue; 72-120 hour incubation
Procedure: as §4, §5

[15] = tested on: HPAFII-MUC1*; experiment: PrestoBlue live/dead cell assay, HPAFII-MUC1*; format: cell-based, human; conditions: Presto Blue; 72-120 hour incubation
Procedure: as §4, §5

[16] = tested on: NCI-H1975; experiment: xCELLigence impedance cytotoxicity, NCI-H1975; format: cell-based, human; conditions: xCELLigence; 40-120 hours incubation; read-out: IC50, NCI-H1975
Procedure: as §6, §7

[17] = tested on: H1975; experiment: PrestoBlue live/dead cell assay, H1975; format: cell-based, human; conditions: Presto Blue; 72-120 hour incubation
Procedure: as §4, §5

[18] = tested on: T47D-MUC1* xenograft tumors; experiment: T47D-MUC1* breast cancer xenograft; format: in vivo, NOD/SCID mice; conditions: intraperitoneal; MMAE ADCs 5-10 mg/kg Days 7, 14, 20; deruxtecan/exatecan ADCs 20 mg/kg weekly x7
Procedure: as §1, §2, §3

Molecule | binding result [1] | H-score [2] | H-score [3] | H-score [4] | binding result [5] | binding result [6] | binding result [7] | binding result [8] | growth of T47D xenograft tumors [9] | IC50 [10] [nM] | IC50 [11] [nM] | IC50 [12] [nM] | IC50 [13] [nM] | IC50 [14] [nM] | IC50 [15] [nM] | IC50 [16] [nM] | IC50 [17] [nM] | growth of T47D-MUC1* xenograft tumors [18]
B1 | no binding | 40 | 220 | 10 | – | – | – | – | – | – | – | – | – | – | – | – | – | –
B2 | no binding | – | – | – | binds | binds | binds | binds | – | – | – | – | – | – | – | – | – | –
B3 | – | – | – | – | – | – | – | – | inhibit the growth | 187 | 156 | 2.6 | 1.8 | 112 | 63 | 23 | 89 | inhibit the growth
